This is an account of results in the domain aggregation screens of Martell et al. (2025).
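Further: 20 min heating vs room temperature control held 20 min.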

This series can be described thus: soluble fraction after stress (log2 fold change); higher = more stays soluble; pooled small domains, quantitative proteomics. The following applies: stress: 75 degC.
Turning to “HMGLLGIYPNPVEGGSVRLLSDADLFGSRFELYDQSGKLVLNGFVTEGNFVSVKGISSGLYISVSYT”, the “soluble fraction (log2)” value is 0.245. Turning to “HMGLLGTDISAETMIGYFKKIDLGFDEETQEVIVPSWRQDLLRDADIAEEVARFYGYDNIPTTLPSGEST”, the “soluble fraction (log2)” value turned out to be 0.0485. As for “HMGLNLIGLKRSGFAPEEVKAMTRAYMYIFKSAEGNFESRLAKAHEKYKDDALIMEMVEFIDDALKG”, the “soluble fraction (log2)” value was -1.09. On to “HMGLQEADKQDRIARMKELISFLNEAAKAYYQEGREIVSNLEYDKAYDALLSLEKESGVVLSGSPSQNVG”, for which the “soluble fraction (log2)” value stood at 0.321. “HMGLRERLLNYIAYKGIDKATLERKSGLSNDAVNKMGDNTRVSTLDKISNAFPDINIAWLKTGVGEMILG”: the “soluble fraction (log2)” value was -0.306. Turning to “HMGLSAALKARLREVINEMAKSGAQPKLREWALAEGIGNFAKPETPEAAEAVIAKAQELLAEA”, the “soluble fraction (log2)” value turned out to be 0.543.

In the case of “HMGLSASVIQMFADLGYTSEGRSTKEMITDYQIDHSIIKNSTEDGAGTYGPRTKASLSTVHAQYI”, the “soluble fraction (log2)” value is -0.0653. Consider “HMGLSENALAMLKQQETVLIRLIDGRGNQGALASINLIVSRILNLDIVDRTPEDLLRVIASEGEQND”, for which the “soluble fraction (log2)” value was -3.81. As to “HMGMIRFSKEEQMLMMLYSPGSRLGLIAELESMKLQLNSRERKLRNLAESVLKKLEQITDEEFMQFDF”, the “soluble fraction (log2)” value is -2.19. As to “HMGMNSGQADFRGISLALSVDAEAEAQRLFTALADGGQVQMPLSKTFFSPAFGMVADRFGVGWMVVTN”, the “soluble fraction (log2)” value was 0.238.

Turning to “HMGMSENIDKVAGGIPYKVEGNKAIINEPLDDATKERLMGKAKEHGYHAAPNQAGGITITLK”, the “soluble fraction (log2)” value was -0.0517.

For the sequence “HMGMSKQKQSSLVRIIMQEISDANEGRMKMSQIIDAALIKGISDSTVRSVISRLSTTGAIYEPQTGTYEW”, the “soluble fraction (log2)” value is -0.649.

Turning to “HMGNEEEEAIREAEEAIERVLEYGEPQELNPQNGFIRRLQHQLAEKSHLSSESVGVEPYRRVRISK”, the “soluble fraction (log2)” value came to 0.193. In the case of “HMGNFFDSAILALKNAIQENYGGNVSQAARSLGISVPTLHTWIKGDRKPSLEKLSPILDALNAKIVL”, the “soluble fraction (log2)” value is -1.06. In the case of “HMGNFGDLLKILLDEKELSMGELSKKSGIDKSTISRIANNKQKPNINHLEKMAIHLNINLEELLKASGYEF”, the “soluble fraction (log2)” value is -0.666.

Turning to “HMGNFQNIFRKLRTSSNLTQNAIAEKLGISRSTIGMYETGAREPDFETLEKIADYFNVDTDFLLGRTNQTT”, the “soluble fraction (log2)” value is -0.315. In the case of “HMGNKDAQLVHLAKMNEIQIELMKTGRGYMVTDQNVYNLAKKMGENMGFKHPDLFLTDPAKV”, the “soluble fraction (log2)” value is -0.0897.

With “HMGNKDIEILFSEIVEMRNRIIHGFRITSKQGEQILATKTRKKDGNIQFEITKEYLLDFIKKNEELSDMLY”, the “soluble fraction (log2)” value was -2.46. As to “HMGNKWALLVVFILNENGSTRFNQLARQIPDISTKVLSNTLQILEADGLVKRTVFPEVPIRVEYELTATGK”, the “soluble fraction (log2)” value is -3.92.

Regarding “HMGNLIIFYDEGIGSGPLMKAVNDSGVSLVYEYKNLHGIAIRPSAKTNIQDAIAYFQKVNGVLSVEQ”, the “soluble fraction (log2)” value was -2.92. Turning to “HMGNNKLVLSLAVALKNTPNFLKNYNYKISKDKKFIEILLSKQINEVSDIIINLKKNNINIVDLNIKKR”, the “soluble fraction (log2)” value was -1.85.

For the sequence “HMGNNTEITYSEFIRQAEAGNVQYVTVDGEKLLISATDGKSYYTINPRDDQMTDRLLNSGVEIRAEPQ”, the “soluble fraction (log2)” value is 0.021. As for “HMGNRQEQVRIIRDLWRQLADAGQPVPAKHLTLDLDALDATQLTKLEDQAHGWLAKLSAQADLADAA”, the “soluble fraction (log2)” value was -0.0412. Regarding “HMGNTMIVILKHEARQEQIDRLKQFLLGMGLRIDESKGENSTILGLVGDTTRVDADLISSLDAVEAVRRV”, the “soluble fraction (log2)” value is -0.891. On to “HMGNWENVEKETTEAIMAVKNGEAVWVDLAPANRMIRQMQHELVEQYGLLSQSYGKEPKRRIRIFQNP”, for which the “soluble fraction (log2)” value is -0.462. Regarding “HMGPDALSIGRRVRQVRTARGMTLDELAAAVSRAPSQLSMIETGKREPKLSLLQAIARALGTTIDALLT”, the “soluble fraction (log2)” value is -0.856.

For “HMGPDGLFAKFREPETGKDLLITQNVFVEQVLIKGVLTRTLTDAEANTYRAPFVNPEKRFPIYVWPNELP”, the “soluble fraction (log2)” value amounted to 0.014. In the case of “HMGPEAFPVPYIVDIELDRAIYVIEQSGFIVGQKLEANDDNVPRGFVISQNPAAGTKLGPNSVVDLVISSG”, the “soluble fraction (log2)” value is -1.18. As for “HMGPEQLIGKTGIAASELAPRGEVKIEGQIWRAETVGDHVKQGEPVEVVSREGLILRVKPKHPQTRG”, the “soluble fraction (log2)” value came out at 0.0258. “HMGPEVQLAYSEFLAKVKVGEVNDVMVKGNEIHGHFSDGRTFSTYSPNDPDLVEKLNKNKVMIKAAPP”: the “soluble fraction (log2)” value amounted to 0.00889. “HMGPFYFDQDGKAYSGLLNRNGEILYFADPFNAAVKNTTKTIDGKTYTFNQNGRATSIDGIPLEPP”: the “soluble fraction (log2)” value was 0.0904.

Take “HMGPGDTTIPTTIIGMSLEEARNELSAAGLLVARIIPVDSNSRTGTVLKITPDAGSIIKAGSGVELEIAS”: the “soluble fraction (log2)” value is -0.101. “HMGPGFVGGSVLSGGNRGEGDPVANAQVFITDMDDNVVAFTKTDAEGNFDMTNLAYGDYKMYVDILNK”: the “soluble fraction (log2)” value was 0.126. Consider “HMGPGSYVVNVKPYAYVSINGRDYGRTPVGPIRLDPGTYKVVFTHEHRPSFSRTIVVEAGRETFETFPYPG”, for which the “soluble fraction (log2)” value is -2.06. The same measure for “HMGPLPIDSRYFNNLVPYTGITHVNSVIPEAERHIGLTVVVKTGSTYSEYWYRTGVTNSSLELKT”: -1.41. For the sequence “HMGPLYARVKAIVLARIMGGDWPPGTALPAEMELARALGVSQGTVRKALDALTAEQVVVRRQGSGTYVAE”, the “soluble fraction (log2)” value was -1.75. The same measure for “HMGPNYYDILEIPTDASPSEITQAFRKKALEWHPDKNPNNLEEATSRFIEIVEAYRVLSSKDSKLQYDTG”: -0.213; for “HMGPSVGMTVGEMERDLIFRTLETVGDNRTKAADMLGISIRTLRNKLNEYREAGFEWPRKAG”: -0.223. “HMGQAVTMLKAGRLLANAKGTGAPVRSLEPGMLLYPTGVKEGTMWEVEDEMGNKGWVNSTLMETA”: the “soluble fraction (log2)” value is -0.6. On to “HMGQAVTVPELKGLSFDEAIEKLDDAGLKYEVVDSNYVEDMKPGTVFETLPEAGSRVKPRRIVFLTINAF”, for which the “soluble fraction (log2)” value was -0.257. As to “HMGQDTTIVVRRGESLLGIAARLLPATDFYTTGELAEGIRTASGMENDRLIPGQTLRVPLNSG”, the “soluble fraction (log2)” value was -0.24. With “HMGQGEISVPRLEGLSLRETSELLGLFGLRLEAAGSGIALSQNPPAGARVKAGDVIQVDFGEPGN” the figure was 0.0756; with “HMGQHSAELKLHPQDLGQVTISMKVEDNQAQLQMVSGHGHVRAALEAALPQLRSQLADSGIQLTQSSIS”, -0.198; with “HMGQISDEETLKTVASRIIDANPDEARKYRSGKTGLLGFFVGQVMKATQGEANPKLASRIVKELLE”, -0.15. Consider “HMGQLIVTIPNFERRPAEQAIQKLEELGLVPEEKQIYHDDIPAGSVIYTDPSKDSQVNAGTKVYVYVSLG”, for which the “soluble fraction (log2)” value was -0.311. Take “HMGQMGHAVVAKTDLAVGTPLTRDLVAVREVPVEWLHSSAITPEQFERAAGAVLAQPARGGEPLVWSQLEE”: the “soluble fraction (log2)” value was found to be 0.111. The same measure for “HMGQPRPLTAEDFDFLSDDEIAEMRKALSNGEMLRLRELIAQIGEKRPFLAERLLVLAKQYNYEDLSRLLE”: -0.472; for “HMGQQPPVTEIYKNHDGNKDGLLEAGEVTGSRYARQFPRWDVNGDQKVSPQEVIAFRKRFGIAADGTLL”: 0.0193; for “HMGQQTVEPLSRRELEVLSLLAKGLSNQQIADRLVISVRTVKKHVENIHGKLGVQSRTQAVARARELGLV”: -1.24. Consider “HMGQTYTITINPTPADAKVIIDGVATNSVEAIDGRTLIWSVSKPGYLTKSGNYTVTGKNETLNIVLKEDPD”, for which the “soluble fraction (log2)” value stood at 0.163. Take “HMGQVLEGVFRRKANGKNAFIPDGGGEPILVAERNSAHAMDGDRVKATLLARRKHHVREAQVTEILKRSSK”: the “soluble fraction (log2)” value was -0.258. Regarding “HMGQVSDENQLNKVIDEVIKNYPIQVEQFKAGKEPILQFLKGMVMKATEGSADPAVAEKLLRKKL”, the “soluble fraction (log2)” value came to 0.0979. Turning to “HMGQYLDAATVAAVYHAYHARNWTQATLAKELKVARPTLSNVLNGREAPSVELAARIRAFLGSPEP”, the “soluble fraction (log2)” value was -3.16. In the case of “HMGRAAEETETFRTQGELDARIKELQGQMRDAAANLEFERAAGLRDTLKRLRTRGLGLSASP”, the “soluble fraction (log2)” value was found to be 0.0633. Take “HMGRENGTVKWFNTSKGFGFITRDDGGDVFVHFRSIQGEGHRALQEGQRVSYVVANRDKGLQAEDVTILN”: the “soluble fraction (log2)” value is -0.277. With “HMGRKRLADYGLNDTEQKIVRKIADGLSNREIAQALYLSEGTVKNYITDILGKLELRDRTQIAIFYLREIG”, the “soluble fraction (log2)” value is -0.941.

In the case of “HMGRLTTKIVLYDRIENIVPERRKELVADIEKRIGVKVEVLEIGHVDFVRDAAWLKVSYYLAPGE”, the “soluble fraction (log2)” value is -2.21. Take “HMGRNSTPKEPLKKFEVSPITEKEVRILDGRFGPYITDGATNVTVPKTITIEEITFERALDMLAEKAAKGP”: the “soluble fraction (log2)” value amounted to 0.0521. Consider “HMGRPQISDELRNAIIEVAKDNRDWGYIRIQGQLKYLGYRVSTATIGKVLKKAGLEPQPDRRRK”, for which the “soluble fraction (log2)” value is -1.92. For the sequence “HMGRPWRIGDVVNVSRPTGDGGGFTKGLITRIYPTTVQVTWNPDLQHARPWTTMEKKQYLIFVYHDDE”, the “soluble fraction (log2)” value was -3.09. Turning to “HMGRQTITLPDFSGQDLEQVKARLTEWGLVPEEKSVFSDSVPLGSVVRTVPAEGDEVSVGDTVTVYKSLGR”, the “soluble fraction (log2)” value came to 0.19.

Regarding “HMGRRDLSWQPAAGGVSIDGLKAGEAWTLFGLNGRILKQGYAPEGQMSLAVNAGLFVLRGAESGVIRIAVA”, the “soluble fraction (log2)” value is -1.38. Regarding “HMGRSYTIKSGDTLWAIATRYYGNGAQYSKIYNANKGTIESVAKSRGFRSSQNGHWIFPGTSITI”, the “soluble fraction (log2)” value was -0.722. The same measure for “HMGRTITVGIAEDADIKDIAKMLEEKGLISDYRLFVVQELLSAQHDKIKPGIYDLSTDMKAEEMLEILAG”: -0.248. As to “HMGRTKEEIFNILKERIVTLQYEPGKILNEIELSEEFEVSRTPIRTVFQQLEAVKLVSIVPRYGVQVA”, the “soluble fraction (log2)” value was -1.15.

As to “HMGRYATVPDVVGSTPEVARELIRSEGLRYVLSEETVYSDSDTGTVGRTDPESGTRMSADDEVVVYLS”, the “soluble fraction (log2)” value worked out at 0.0649. Regarding “HMGRYVIQIASFSSKNNAIEAADKLGGFVVQSGRFYRVRTGPFATRGEADAALASARRVGYRDAFIDTS”, the “soluble fraction (log2)” value was -1.59. The same measure for “HMGSAIAHAIASLPDRYRELLLLKYDTGYSEKEIAQLLGMTEANVKKTIQRAKAKLQTLLDEMEA”: -1.43; for “HMGSAKAQLYDLMNAHQVTRNQIQDIVAEKGYFPAGTPIENYPDDFVKGVLVGAWDQVHKAILDKEI”: 0.326.
